This experiment addresses T1, G5-pep2(299-319aa) 抗原肽 (human).
T1 peptide: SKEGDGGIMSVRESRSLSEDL
Put plainly: indirect ELISA, peptide coated at 2 ug/ml, purified antibody in 2-fold dilutions from 1:200, logistic fit. In general terms: ELISA stands for enzyme-linked immunosorbent assay.

B1: 抗HLA-G异构体分子HLA-G5及HLA-G6的单克隆抗体(9Y5G6) (antibody, V domains shown)
VH: VQLQESGGGLVQPGGSRKLSCAASGFTFRDFGMAWVRQVPGMGPEWVASISNLARIIDYADTVTGRFTISRENAKNTLYLEMNSLRSEDSAIYYCARVTTIVPDYWGQGTSLTVSS
VL: DIVITQDELSLPVSLGDHTSISCRSSQSLLHSNGHTYLHWYLQKPGQSPKLLIYKVSNRFSGVPDRFSGSGSGTDFTLKISRVEAEDLGVYFCSQSTHVPWTFGGGTKVEIKR
notes: only the CDRs are; also called 抗HLA-G单克隆抗体(9Y5G6)
As to B1, the Ka came out at 1.5e+11 M⁻¹ and the “X0 (midpoint of the logistic fit, antibody dilution factor)” value came out at 1.56e+06 dilution fold.

The values are drawn from patent CN113045656A (TAIZHOU ENZE MEDICAL CT GROUP, dated 2021).
